In patent publication US20160347802A1 (MAX PLANCK GESELLSCHAFT ZUR FOERDERUNG DER WISSENSCHAFTEN E …, published 2016):

T1: human DRAXIN, AVEXIS prey or bait protein (human, UniProt Q8NBI3 26-349)
T1 sequence: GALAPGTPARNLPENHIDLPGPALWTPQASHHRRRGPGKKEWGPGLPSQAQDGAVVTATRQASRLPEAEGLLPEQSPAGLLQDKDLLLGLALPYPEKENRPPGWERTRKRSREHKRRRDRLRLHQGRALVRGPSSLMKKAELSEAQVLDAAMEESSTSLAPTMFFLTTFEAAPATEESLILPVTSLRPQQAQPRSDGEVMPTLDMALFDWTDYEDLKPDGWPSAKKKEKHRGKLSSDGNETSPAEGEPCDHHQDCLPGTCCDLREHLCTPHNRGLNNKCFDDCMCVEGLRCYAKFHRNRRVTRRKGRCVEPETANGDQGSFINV

T2: human DRAXIN 21 amino acid Netrin binding fragment, AVEXIS prey or bait protein (human)
T2 construct: Tested in both bait and prey orientations; also called human 21 amino acid DRAXIN fragment; derived 21 amino acid peptide; not shown: AVEXIS tag (rat Cd4d3+4 and prey or bait module)
T2 peptide: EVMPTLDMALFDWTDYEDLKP

B1: human Netrin-G2, AVEXIS protein (ligand, UniProt Q96CW9 18-507, looked up)
chain: DYDICKSWVTTDEGPTWEFYACQPKVMRLKDYVKVKVEPSGITCGDPPERFCSHENPYLCSNECDASNPDLAHPPRLMFDKEEEGLATYWQSITWSRYPSPLEANITLSWNKTVELTDDVVMTFEYGRPTVMVLEKSLDNGRTWQPYQFYAEDCMEAFGMSARRARDMSSSSAHRVLCTEEYSRWAGSKKEKHVRFEVRDRFAIFAGPDLRNMDNLYTRLESAKGLKEFFTLTDLRMRLLRPALGGTYVQRENLYKYFYAISNIEVIGRCKCNLHANLCSMREGSLQCECEHNTTGPDCGKCKKNFRTRSWRAGSYLPLPHGSPNACATAGSFGNCECYGHSNRCSYIDFLNVVTCVSCKHNTRGQHCQHCRLGYYRNGSAELDDENVCIECNCNQIGSVHDRCNETGFCECREGAAGPKCDDCLPTHYWRQGCYPNVCDDDQLLCQNGGTCLQNQRCACPRGYTGVRCEQPRCDPADDDGGLDCDRAPG
notes: not shown: AVEXIS tag (bait or prey)
B2: human Netrin-G1, AVEXIS protein (ligand, UniProt Q9Y2I2 29-510, looked up)
chain: HYDLCKTQIYTEEGKVWDYMACQPESTDMTKYLKVKLDPPDITCGDPPETFCAMGNPYMCNNECDASTPELAHPPELMFDFEGRHPSTFWQSATWKEYPKPLQVNITLSWSKTIELTDNIVITFESGRPDQMILEKSLDYGRTWQPYQYYATDCLDAFHMDPKSVKDLSQHTVLEIICTEEYSTGYTTNSKIIHFEIKDRFAFFAGPRLRNMASLYGQLDTTKKLRDFFTVTDLRIRLLRPAVGEIFVDELHLARYFYAISDIKVRGRCKCNLHATVCVYDNSKLTCECEHNTTGPDCGKCKKNYQGRPWSPGSYLPIPKGTANTCIPSISSIGNCECFGHSNRCSYIDLLNTVICVSCKHNTRGQHCELCRLGYFRNASAQLDDENVCIECYCNPLGSIHDRCNGSGFCECKTGTTGPKCDECLPGNSWHYGCQPNVCDNELLHCQNGGTCHNNVRCLCPAAYTGILCEKLRCEEAGSCGS
notes: as for B1
B3: human Netrin-4, AVEXIS protein (ligand, UniProt Q9HB63 19-628, looked up)
chain: GLSGVAGVSSRCEKACNPRMGNLALGRKLWADTTCGQNATELYCFYSENTDLTCRQPKCDKCNAAYPHLAHLPSAMADSSFRFPRTWWQSAEDVHREKIQLDLEAEFYFTHLIVMFKSPRPAAMVLDRSQDFGKTWKPYKYFATNCSATFGLEDDVVKKGAICTSKYSSPFPCTGGEVIFKALSPPYDTENPYSAKVQEQLKITNLRVQLLKRQSCPCQRNDLNEEPQHFTHYAIYDFIVKGSCFCNGHADQCIPVHGFRPVKAPGTFHMVHGKCMCKHNTAGSHCQHCAPLYNDRPWEAADGKTGAPNECRTCKCNGHADTCHFDVNVWEASGNRSGGVCDDCQHNTEGQYCQRCKPGFYRDLRRPFSAPDACKPCSCHPVGSAVLPANSVTFCDPSNGDCPCKPGVAGRRCDRCMVGYWGFGDYGCRPCDCAGSCDPITGDCISSHTDIDWYHEVPDFRPVHNKSEPAWEWEDAQGFSALLHSGKCECKEQTLGNAKAFCGMKYSYVLKIKILSAHDKGTHVEVNVKIKKVLKSTKLKIFRGKRTLYPESWTDRGCTCPILNPGLEYLVAGHEDIRTGKLIVNMKSFVQHWKPSLGRKVMDILKRECK
notes: as for B1

Key:
[1] = molecular target: the molecule itself; test: AVEXIS, prey NTNG2 on bait NTNG2
Text: (§1) The Matn4-bait served as an internal prey-protein control and was used for normalization of the A486 nm values; conditioned medium (CM) serves as negative control; n=3.

[2] = molecular target: T3, human Netrin-3, AVEXIS protein (human, UniProt O00634 28-580); test: AVEXIS, prey NTN3 on bait NTNG2
T3 construct: not shown: AVEXIS tag (bait or prey)
T3 sequence (O00634 28-580): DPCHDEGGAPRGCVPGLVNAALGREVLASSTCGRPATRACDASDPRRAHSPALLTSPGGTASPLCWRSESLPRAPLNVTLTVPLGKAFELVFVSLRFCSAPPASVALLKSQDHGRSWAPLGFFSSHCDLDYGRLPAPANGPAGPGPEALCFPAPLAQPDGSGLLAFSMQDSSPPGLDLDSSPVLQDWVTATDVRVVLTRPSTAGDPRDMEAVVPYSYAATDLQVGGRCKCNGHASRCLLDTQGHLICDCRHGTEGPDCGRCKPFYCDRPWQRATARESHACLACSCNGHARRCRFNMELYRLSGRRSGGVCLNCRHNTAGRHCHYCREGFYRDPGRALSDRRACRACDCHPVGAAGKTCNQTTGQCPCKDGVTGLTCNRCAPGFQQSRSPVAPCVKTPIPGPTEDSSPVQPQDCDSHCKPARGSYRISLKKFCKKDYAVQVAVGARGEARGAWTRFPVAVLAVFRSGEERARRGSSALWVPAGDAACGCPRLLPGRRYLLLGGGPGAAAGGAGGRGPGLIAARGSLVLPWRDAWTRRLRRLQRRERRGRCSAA
Text: as §1

[3] = molecular target: the molecule itself; test: AVEXIS, prey on bait NTNG2; white = No binding
Text: as §1

[4] = molecular target: T4, human Netrin1, recombinant AVEXIS protein (biotinylated when immobilised) (human, UniProt O95631 25-604); test: AVEXIS, prey on bait NTN1; white = No binding
T4 construct: also called NTN1
Text: as §1

[5] = molecular target: B2; test: AVEXIS, prey on bait NTNG1; white = No binding
Text: as §1

[6] = molecular target: T1, human DRAXIN, AVEXIS prey or bait …; test: AVEXIS, prey on bait DRAXIN; white = No binding
Text: as §1

[7] = molecular target: B3; test: AVEXIS, prey NTN4 on bait NTNG2
Text: as §1

[8] = molecular target: B3; test: AVEXIS, prey on bait NTN4; white = No binding
Text: as §1

[9] = molecular target: T4, human Netrin1, recombinant AVEXIS …; test: AVEXIS, prey NTN1 on bait NTNG2
Text: as §1

[10] = molecular target: T3, human Netrin-3, AVEXIS protein; test: AVEXIS, prey on bait NTN3; white = No binding
Text: as §1

[11] = molecular target: T2, human DRAXIN 21 amino acid Netrin …; test: AVEXIS, prey on bait DRAXIN 21aa; white = No binding
Text: as §1

[12] = molecular target: T5, Matn4 ECD, mono-biotinylated bait protein (positive control); test: AVEXIS, prey on bait Matn4 (+), positive control for the prey; dark = Binding
T5 construct: extracellular domain; also called Matn4-bait
Text: as §1

[13] = molecular target: T6, biotinylated recombinant human UNC5B (human, UniProt Q8IZJ1 27-377); test: AVEXIS, prey on bait UNC5B; white = No binding
T6 construct: Made in HEK293-6E and immobilised on an SA chip
Text: as §1

[14] = molecular target: B3; test: AVEXIS, prey NTN4 on bait NTNG1
Text: as §1

[15] = molecular target: B1; test: AVEXIS, prey on bait NTNG2; white = No binding
Text: as §1

[16] = molecular target: the molecule itself; test: AVEXIS, prey on bait NTNG1; white = No binding
Text: as §1

[17] = molecular target: the molecule itself; test: AVEXIS, prey NTNG1 on bait NTNG1
Text: as §1

[18] = molecular target: B1; test: AVEXIS, prey NTNG1 on bait NTNG2
Text: as §1

[19] = molecular target: T3, human Netrin-3, AVEXIS protein; test: AVEXIS, prey NTN3 on bait NTNG1
Text: as §1

[20] = molecular target: T4, human Netrin1, recombinant AVEXIS …; test: AVEXIS, prey NTN1 on bait NTNG1
Text: as §1

[21] = molecular target: the molecule itself; test: AVEXIS, prey on bait NTN4; white = No binding
Text: as §1

[22] = molecular target: the molecule itself; test: AVEXIS, prey NTN4 on bait NTN4
Text: as §1

[23] = molecular target: T4, human Netrin1, recombinant AVEXIS …; test: AVEXIS, prey NTN1 on bait NTN4
Text: as §1

A486nm [4] | A486nm [5] | A486nm [6] | A486nm [8] | A486nm [10] | A486nm [11] | A486nm [12] | A486nm [13] | A486nm [15] | Binder | further results
0.06 | 0.061 | 0.06 | 0.063 | 0.062 | 0.063 | 0.201 | 0.061 | – | B1 | binding result [1]: no binding; binding result [2]: no binding; A486nm [3]: 0.062; binding result [7]: no binding; binding result [9]: no binding
0.062 | – | 0.061 | 0.066 | 0.064 | 0.063 | 0.254 | 0.061 | 0.061 | B2 | binding result [14]: no binding; A486nm [16]: 0.062; binding result [17]: no binding; binding result [18]: no binding; binding result [19]: no binding; binding result [20]: no binding
0.067 | 0.065 | 0.063 | – | 0.065 | 0.067 | 0.235 | 0.063 | 0.063 | B3 | A486nm [21]: 0.068; binding result [22]: no binding; binding result [23]: no binding
